Assay results taken from article doi:10.1101/2022.06.13.495963.
pKd: −log10 of the molar value.

Key:
Test in all cases: ITC
[1] = molecular target: B-Myb negative regulatory domain, C-terminal half, amino acids 510-600 (NRD^510-600) (human) (UniProt P10244)
[2] = molecular target: NRD^510-600 S577A, not phosphorylated (NRD^S577A) (human) (UniProt P10244)
[3] = molecular target: NRD^510-600 T538A, not phosphorylated (NRD^T538A) (human) (UniProt P10244)
Chain of NRD^510-600 T538A, not phosphorylated (NRD^T538A) (human) (P10244 510-600 T538A): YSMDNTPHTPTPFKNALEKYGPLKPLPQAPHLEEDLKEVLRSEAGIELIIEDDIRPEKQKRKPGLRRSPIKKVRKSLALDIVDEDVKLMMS

Chain of B-Myb negative regulatory domain, C-terminal half, amino acids 510-600 (NRD^510-600) (human) (P10244 510-600): as the sequence (P10244 510-600 T538A) above, with A29T counted along it
Chain of NRD^510-600 S577A, not phosphorylated (NRD^S577A) (human) (P10244 510-600 S577A): as the sequence (P10244 510-600 T538A) above, with A29T, S68A counted along it

B-Myb DNA binding domain (B-Myb^34-183) (from UniProt P10244-1 34-183) (domain or fragment)
pKd [1]: 5.31 | pKd [2]: 5.49 | pKd [3]: 5.19
